T1: EsCas13d, nuclease-dead (Eubacterium siraeum, UniProt B0MS50, R295A;H300A;R849A;H854A)
T1 sequence: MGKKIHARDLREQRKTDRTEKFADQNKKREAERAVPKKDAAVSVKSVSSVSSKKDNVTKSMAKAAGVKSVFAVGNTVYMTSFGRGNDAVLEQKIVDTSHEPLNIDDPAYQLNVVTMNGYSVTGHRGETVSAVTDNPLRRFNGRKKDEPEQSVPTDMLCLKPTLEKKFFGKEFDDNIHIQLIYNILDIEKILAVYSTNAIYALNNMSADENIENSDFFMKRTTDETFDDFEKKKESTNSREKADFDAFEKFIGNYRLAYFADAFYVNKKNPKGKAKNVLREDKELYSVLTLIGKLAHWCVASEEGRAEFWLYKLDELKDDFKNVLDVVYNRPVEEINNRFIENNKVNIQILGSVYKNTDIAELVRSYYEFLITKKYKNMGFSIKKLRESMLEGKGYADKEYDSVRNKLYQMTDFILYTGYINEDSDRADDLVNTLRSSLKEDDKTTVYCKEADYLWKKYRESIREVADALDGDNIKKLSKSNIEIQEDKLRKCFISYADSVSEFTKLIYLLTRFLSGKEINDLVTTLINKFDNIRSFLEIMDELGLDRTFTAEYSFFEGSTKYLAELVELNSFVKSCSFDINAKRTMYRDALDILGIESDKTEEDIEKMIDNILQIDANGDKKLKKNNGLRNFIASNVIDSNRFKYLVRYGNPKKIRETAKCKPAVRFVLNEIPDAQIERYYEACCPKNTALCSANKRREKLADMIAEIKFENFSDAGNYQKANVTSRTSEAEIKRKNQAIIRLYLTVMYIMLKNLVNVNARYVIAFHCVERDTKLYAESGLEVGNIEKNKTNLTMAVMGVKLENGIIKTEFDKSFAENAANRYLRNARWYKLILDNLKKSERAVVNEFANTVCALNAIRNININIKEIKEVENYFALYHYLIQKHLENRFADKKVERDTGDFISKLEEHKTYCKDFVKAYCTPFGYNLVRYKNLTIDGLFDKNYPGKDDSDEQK

B1: target 1 insC 3' of 10,insU 3' of 4 (mixed)
RNA 1: CACCCGUGCAAAAAUGCAGGGGUCUAAAACUGAGCGGAUAACCUCUCUAUGG
RNA 2: GGGAAUGGAUCCACAUCUACGAAUUCGUACCAUAGAGAGGUUCAUCCGCUUCACCGAGAUCGGAAGAGCACACGU
B2: target 1 insC 3' of 22,insU 3' of 12 (mixed)
RNA 1: CACCCGUGCAAAAAUGCAGGGGUCUAAAACUGAGCGGAUAACCUCUCUAUGG
RNA 2: GGGAAUGGAUCCACAUCUACGAAUUCGUACCCAUAGAGAGGUUUAUCCGCUCACCGAGAUCGGAAGAGCACACGU
B3: target 1 insU 3' of 9,insC 3' of 9 (mixed)
RNA 1: CACCCGUGCAAAAAUGCAGGGGUCUAAAACUGAGCGGAUAACCUCUCUAUGG
RNA 2: GGGAAUGGAUCCACAUCUACGAAUUCGUACCAUAGAGAGGUUAUCUCCGCUCACCGAGAUCGGAAGAGCACACGU
B4: target 1 insU 3' of 22,insG 3' of 4 (mixed)
RNA 1: CACCCGUGCAAAAAUGCAGGGGUCUAAAACUGAGCGGAUAACCUCUCUAUGG
RNA 2: GGGAAUGGAUCCACAUCUACGAAUUCGUACUCAUAGAGAGGUUAUCCGCGUCACCGAGAUCGGAAGAGCACACGU
B5: target 1 insU 3' of 18,insC 3' of 10 (mixed)
RNA 1: CACCCGUGCAAAAAUGCAGGGGUCUAAAACUGAGCGGAUAACCUCUCUAUGG
RNA 2: GGGAAUGGAUCCACAUCUACGAAUUCGUACCAUAUGAGAGGUUCAUCCGCUCACCGAGAUCGGAAGAGCACACGU
B6: target 1 complement block 7-10 (mixed)
RNA 1: CACCCGUGCAAAAAUGCAGGGGUCUAAAACUGAGCGGAUAACCUCUCUAUGG
RNA 2: GGGAAUGGAUCCACAUCUACGAAUUCGUACCAUAGAGAGGUAUAGCGCUCACCGAGAUCGGAAGAGCACACGU
B7: target 1 U19G,A20U (mixed)
RNA 1: CACCCGUGCAAAAAUGCAGGGGUCUAAAACUGAGCGGAUAACCUCUCUAUGG
RNA 2: GGGAAUGGAUCCACAUCUACGAAUUCGUACCUGAGAGAGGUUAUCCGCUCACCGAGAUCGGAAGAGCACACGU
B8: target 1 insA 3' of 8,insU 3' of 7 (mixed)
RNA 1: CACCCGUGCAAAAAUGCAGGGGUCUAAAACUGAGCGGAUAACCUCUCUAUGG
RNA 2: GGGAAUGGAUCCACAUCUACGAAUUCGUACCAUAGAGAGGUUAUACUCGCUCACCGAGAUCGGAAGAGCACACGU
B9: target 1 insG 3' of 18,insG 3' of 18 (mixed)
RNA 1: CACCCGUGCAAAAAUGCAGGGGUCUAAAACUGAGCGGAUAACCUCUCUAUGG
RNA 2: GGGAAUGGAUCCACAUCUACGAAUUCGUACCAUAGGGAGAGGUUAUCCGCUCACCGAGAUCGGAAGAGCACACGU
B10: target 1 insA 3' of 17,insC 3' of 16 (mixed)
RNA 1: CACCCGUGCAAAAAUGCAGGGGUCUAAAACUGAGCGGAUAACCUCUCUAUGG
RNA 2: GGGAAUGGAUCCACAUCUACGAAUUCGUACCAUAGAACGAGGUUAUCCGCUCACCGAGAUCGGAAGAGCACACGU
B11: target 1 U11G,A16G (mixed)
RNA 1: CACCCGUGCAAAAAUGCAGGGGUCUAAAACUGAGCGGAUAACCUCUCUAUGG
RNA 2: GGGAAUGGAUCCACAUCUACGAAUUCGUACCAUAGGGAGGGUAUCCGCUCACCGAGAUCGGAAGAGCACACGU
B12: target 1 insG 3' of 22,insU 3' of 6 (mixed)
RNA 1: CACCCGUGCAAAAAUGCAGGGGUCUAAAACUGAGCGGAUAACCUCUCUAUGG
RNA 2: GGGAAUGGAUCCACAUCUACGAAUUCGUACGCAUAGAGAGGUUAUCCUGCUCACCGAGAUCGGAAGAGCACACGU
B13: target 1 complement block 5-12 (mixed)
RNA 1: CACCCGUGCAAAAAUGCAGGGGUCUAAAACUGAGCGGAUAACCUCUCUAUGG
RNA 2: GGGAAUGGAUCCACAUCUACGAAUUCGUACCAUAGAGAGCAAUAGGCCUCACCGAGAUCGGAAGAGCACACGU
B14: target 1 insU 3' of 21,insU 3' of 7 (mixed)
RNA 1: CACCCGUGCAAAAAUGCAGGGGUCUAAAACUGAGCGGAUAACCUCUCUAUGG
RNA 2: GGGAAUGGAUCCACAUCUACGAAUUCGUACCUAUAGAGAGGUUAUCUCGCUCACCGAGAUCGGAAGAGCACACGU
B15: target 1 insU 3' of 21,insA 3' of 17 (mixed)
RNA 1: CACCCGUGCAAAAAUGCAGGGGUCUAAAACUGAGCGGAUAACCUCUCUAUGG
RNA 2: GGGAAUGGAUCCACAUCUACGAAUUCGUACCUAUAGAAGAGGUUAUCCGCUCACCGAGAUCGGAAGAGCACACGU
B16: target 1 U3C,U10G (mixed)
RNA 1: CACCCGUGCAAAAAUGCAGGGGUCUAAAACUGAGCGGAUAACCUCUCUAUGG
RNA 2: GGGAAUGGAUCCACAUCUACGAAUUCGUACCAUAGAGAGGUGAUCCGCCCACCGAGAUCGGAAGAGCACACGU
B17: target 1 U10C,C21A (mixed)
RNA 1: CACCCGUGCAAAAAUGCAGGGGUCUAAAACUGAGCGGAUAACCUCUCUAUGG
RNA 2: GGGAAUGGAUCCACAUCUACGAAUUCGUACAAUAGAGAGGUCAUCCGCUCACCGAGAUCGGAAGAGCACACGU
B18: target 1 insU 3' of 14,insC 3' of 14 (mixed)
RNA 1: CACCCGUGCAAAAAUGCAGGGGUCUAAAACUGAGCGGAUAACCUCUCUAUGG
RNA 2: GGGAAUGGAUCCACAUCUACGAAUUCGUACCAUAGAGAUCGGUUAUCCGCUCACCGAGAUCGGAAGAGCACACGU
B19: target 1 insU 3' of 17,insC 3' of 13 (mixed)
RNA 1: CACCCGUGCAAAAAUGCAGGGGUCUAAAACUGAGCGGAUAACCUCUCUAUGG
RNA 2: GGGAAUGGAUCCACAUCUACGAAUUCGUACCAUAGUAGAGCGUUAUCCGCUCACCGAGAUCGGAAGAGCACACGU
B20: target 1 C4A,G13A (mixed)
RNA 1: CACCCGUGCAAAAAUGCAGGGGUCUAAAACUGAGCGGAUAACCUCUCUAUGG
RNA 2: GGGAAUGGAUCCACAUCUACGAAUUCGUACCAUAGAGAAGUUAUCCGAUCACCGAGAUCGGAAGAGCACACGU
B21: target 1 G5A,U11G (mixed)
RNA 1: CACCCGUGCAAAAAUGCAGGGGUCUAAAACUGAGCGGAUAACCUCUCUAUGG
RNA 2: GGGAAUGGAUCCACAUCUACGAAUUCGUACCAUAGAGAGGGUAUCCACUCACCGAGAUCGGAAGAGCACACGU
B22: target 1 C7G,G13U (mixed)
RNA 1: CACCCGUGCAAAAAUGCAGGGGUCUAAAACUGAGCGGAUAACCUCUCUAUGG
RNA 2: GGGAAUGGAUCCACAUCUACGAAUUCGUACCAUAGAGAUGUUAUGCGCUCACCGAGAUCGGAAGAGCACACGU
B23: target 1 U11G (mixed)
RNA 1: CACCCGUGCAAAAAUGCAGGGGUCUAAAACUGAGCGGAUAACCUCUCUAUGG
RNA 2: GGGAAUGGAUCCACAUCUACGAAUUCGUACCAUAGAGAGGGUAUCCGCUCACCGAGAUCGGAAGAGCACACGU
B24: target 1 G5U,C21U (mixed)
RNA 1: CACCCGUGCAAAAAUGCAGGGGUCUAAAACUGAGCGGAUAACCUCUCUAUGG
RNA 2: GGGAAUGGAUCCACAUCUACGAAUUCGUACUAUAGAGAGGUUAUCCUCUCACCGAGAUCGGAAGAGCACACGU

Each binder was assayed against T1, EsCas13d, nuclease-dead (assay: crRNA (strand 1, pre-loaded); Mg2+; 40 mM Tris-HCl pH 7.5, 150 mM NaCl, 6 mM MgCl2, 1 mM DTT, 0.1% Tween-20, 0.2 mg/ml BSA; 25 C; 10 min per concentration, then washed). Conditions: tags: His6-TwinStrep-SUMO cleaved; N-terminal SNAP kept (SNAP-Surface 488); label: 3' end held by stalled T7 RNA polymerase.

Binder | Kd
B1 | 12.7 ± 1.1 nM
B2 | 16.8 ± 1.2 nM
B3 | 21.5 ± 1.6 nM
B4 | 22.3 ± 1.5 nM
B5 | 65 ± 24 nM
B6 | 11.7 ± 0.7 nM
B7 | 96 ± 35 nM
B8 | 12.8 ± 0.5 nM
B9 | 48 ± 4 nM
B10 | 11.6 ± 0.7 nM
B11 | 53 ± 6 nM
B12 | 49 ± 7 nM
B13 | 15.8 ± 1.5 nM
B14 | 54 ± 4 nM
B15 | ~100 nM
B16 | 26 ± 2.7 nM
B17 | 60 ± 8 nM
B18 | 37 ± 4 nM
B19 | 44 ± 9 nM
B20 | 14 ± 4 nM
B21 | 51 ± 5 nM
B22 | 54 ± 13 nM
B23 | 22.4 ± 1.2 nM
B24 | 5.96 ± 0.31 nM
